The record followed here is patent US20200264162A1.

The assay concerns the target tau-RFP (full-length 2N4R wild-type tau fused to the N-terminus of TagRFP) (UniProt P10636). Kind of assay: fluorescence lifetime FRET in live HEK293 cells, titration of tau-RFP acceptor to tau-GFP donor.

As to “tau-GFP (full-length 2N4R wild-type tau fused to the N-terminus of EGFP) (from UniProt P10636 2-758)”, the maximum energy transfer efficiency (E) turned out to be 0.086.
